According to patent publication KR20220139244A (dated 2022):
Where two headings read alike, the source gives them in different places.

Tests used:
Assay in all cases: cell-based or functional assay
[1] = molecular target: T1, SARS-CoV-2 spike D614 (pseudovirus) (SARS-CoV-2, UniProt P0DTC2 14-1273)
[2] = molecular target: T1, SARS-CoV-2 spike D614 (pseudovirus); remark: listed apart in the source
[3] = molecular target: T1, SARS-CoV-2 spike D614 (pseudovirus); remark: listed apart in the source
[4] = molecular target: T1, SARS-CoV-2 spike D614 (pseudovirus); remark: listed apart in the source
[5] = molecular target: T1, SARS-CoV-2 spike D614 (pseudovirus); remark: listed apart in the source

Binder | IC50 [1] | IC50 [2] | IC50 [3] | IC50 [4] | IC50 [5]
No. 139 antibody (Full IgG) (antibody, V domains shown) VH: QITLKESGPTLVKPTQTLTLTCSFSGFSLSTSGVGVGWIRQPPGKALEWLALIDWDDNKYHTTSLKTRLTISKDTSKNQVVLTMTNMDPVDTATYYCARIPGFLRYRNRYYYYGMDVWGQGTTVTVSS VL: ELVLTQPPSVSAAPGQKVTISCSGSSSNIGNNYVSWYQQLPGTAPKLLIYDNNKRPSGIPDRFSGSKSGTSATLGITGLQTGDEADYYCGTWDSSLSAGVFGGGTELTVL | 0.535 ng/mL | 0.378 ng/mL | 0.535 ng/mL | 0.35 ng/mL | –
No. 32 antibody (Full IgG; Table 3/4 numbering) (antibody, V domains shown) VH: EVQLVQSGGGLIQPGGSLRLSCAASEFIVSSNYMTWVRQAPGKGLEWVSIIYPGGSTYYADSVKGRFTISRDNSKNTLYLRMNSLRAEDTAVYYCARDLPLTGTTLDYWGQGTLVTVSS VL: not shown | 4.34 ng/mL | – | – | – | 4.34 ng/mL
